The values below come from PMC12554172, “Systematic analysis of the RGS2 degron reveals characteristics of substrate recognition by the F-box protein FBXO44” (The Journal of Biological Chemistry, 2025).

This test addresses RGS2^5–16 peptide (RGS2 degron, Met^5–Met^16). The test is described as follows: SPR; Biacore X100; RGS2^5–16 peptide amine-coupled to a CM5 chip (2498 RU), blank reference cell; FBXO44^FBA as analyte, 0.29 to 75 μM, contact time 60 s, regeneration 50 mM NaOH; RU at equilibrium, nonlinear fit of saturation binding; SEC/SPR buffer 20 mM Tris–HCl pH 7.2, 200 mM NaCl. (Surface plasmon resonance follows binding to a sensor surface in real time, without labels.)

B1: FLAG-tagged FBXO44 FBA domain (FBXO44^FBA) (domain or fragment)
chain: FYFLRSLHRNLLHNPCAEEGFEFWSLDVNGGDEWKVEDLSRDQRKEFPNDQVKKYFVTSYYTCLKSQVVDLKAEGYWEELMDTTRPDIEVKDWFAARPDCGSKYQLCVQLLSSAHAPLGTFQPDPATIQQKSDAKWREVSHTFSNYPPGVRYIWFQHGGVDTHYWAGWYGPRVTNSSITIGP
A word on the Kd: it is the concentration at which binding is half-saturated. Higher therefore signals lower affinity. B1 gave a Kd of 2.1 µM.
